# Reference: patent publication US20160327558
# T1: probe 5 (FITC-LRSR-AOMK)
# T1 chain: LRSR
# T2: z-VRPR-FMK (not fully specified)
# T2 chain: VRPR
# T3: FLAG-A20, P21580
# T3 chain: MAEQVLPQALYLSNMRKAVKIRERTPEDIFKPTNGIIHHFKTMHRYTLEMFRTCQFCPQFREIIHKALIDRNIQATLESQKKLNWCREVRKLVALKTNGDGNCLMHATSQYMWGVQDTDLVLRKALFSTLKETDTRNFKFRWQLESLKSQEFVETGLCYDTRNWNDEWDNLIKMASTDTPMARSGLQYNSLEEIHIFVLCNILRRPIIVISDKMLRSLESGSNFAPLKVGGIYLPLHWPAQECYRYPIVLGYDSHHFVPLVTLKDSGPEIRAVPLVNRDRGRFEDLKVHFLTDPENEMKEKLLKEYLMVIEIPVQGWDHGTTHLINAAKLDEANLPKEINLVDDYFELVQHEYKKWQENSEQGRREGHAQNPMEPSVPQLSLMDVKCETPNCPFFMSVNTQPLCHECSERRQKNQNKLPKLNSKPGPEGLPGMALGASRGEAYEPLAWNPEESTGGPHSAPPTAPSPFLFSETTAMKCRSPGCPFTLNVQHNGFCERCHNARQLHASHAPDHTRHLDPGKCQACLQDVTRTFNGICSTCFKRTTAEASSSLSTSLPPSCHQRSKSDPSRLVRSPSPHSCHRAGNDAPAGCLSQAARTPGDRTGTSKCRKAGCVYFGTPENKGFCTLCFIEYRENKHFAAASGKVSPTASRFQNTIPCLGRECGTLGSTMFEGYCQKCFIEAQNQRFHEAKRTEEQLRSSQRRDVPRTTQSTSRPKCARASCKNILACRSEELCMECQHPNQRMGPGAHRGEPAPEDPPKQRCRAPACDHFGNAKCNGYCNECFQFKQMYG
# What was measured:
# probe 5 (FITC-LRSR-AOMK) = biological target: T1, probe 5 (FITC-LRSR-AOMK)
# z-VRPR-FMK = biological target: T2, z-VRPR-FMK
# FLAG-A20, P21580 = biological target: T3, FLAG-A20, P21580
protein,measurement,setting,value
recombinant Caspase-8 (protein) SESQTLDKVYQMKSKPRGYCLIINNHNFAKAREKVPKLHSIRDRNGTHLDAGALTTTFEELHFEIKPHDDCTVEQIYEILKIYQLMDHSNMDCFICCILSHGDKGIIYGTDGQEAPIYELTSQFTGLKCPSLAGKPKVFFIQACQGDNYQKGIPVETDSEEQPYLEMDLSSPQTRYIPDEADFLLGMATVNNCVSYRNPAEGTWYIQSLCQSLRERCPRGDDILTILTEVNYEVSNKDDKKNMGKQMPQPTFTLRKKLVFPSD,in vitro protease activity measurements (DEVD-AMC cleavage),probe 5 (FITC-LRSR-AOMK),"As expected, Caspase 8 activity was not affected by the diagnostic inhibitors of MALT1 of the present invention"
MALT1 (in vitro cleavage assay of FIG. 3C) (protein) MSLLGDPLQALPPSAAPTGPLLAPPAGATLNRLREPLLRRLSELLDQAPEGRGWRRLAELAGSRGRLRLSCLDLEQCSLKVLEPEGSPSLCLLKLMGEKGCTVTELSDFLQAMEHTEVLQLLSPPGIKITVNPESKAVLAGQFVKLCCRATGHPFVQYQWFKMNKEIPNGNTSELIFNAVHVKDAGFYVCRVNNNFTFEFSQWSQLDVCDIPESFQRSVDGVSESKLQICVEPTSQKLMPGSTLVLQCVAVGSPIPHYQWFKNELPLTHETKKLYMVPYVDLEHQGTYWCHVYNDRDSQDSKKVEIIIDELNNLGHPDNKEQTTDQPLAKDKVALLIGNMNYREHPKLKAPLVDVYELTNLLRQLDFKVVSLLDLTEYEMRNAVDEFLLLLDKGVYGLLYYAGHGYENFGNSFMVPVDAPNPYRSENCLCVQNILKLMQEKETGLNVFLLDMCRKRNDYDDTIPILDALKVTANIVFGYATCQGAEAFEIQHSGLANGIFMKFLKDRLLEDKKITVLLDEVAEDMGKCHLTKGKQALEIRSSLSEKRALTDPIQGTEYSAESLVRNLQWAKAHELPESMCLKFDCGVQIQLGFAAEFSNVMIIYTSIVYKPPEIIMCDAYVTDFPLDLDIDPKDANKGTPEETGSYLVSKDLPKHCLYTRLSSLQKLKEHLVFTVCLSYQYSGLEDTVEDKQEVNVGKPLIAKLDMHRGLGRKTCFQTCLMSNGPYQSSAATSGGAGHYHSLQDPFHGVYHSHPGNPSNVTPADSCHCSRTPDAFISSFAHHASCHFSRSNVPVETTDEIPFSFSDRLRISEK,in vitro protease activity measurements (cleavage of fluorescent substrates),probe 5 (FITC-LRSR-AOMK),probe 5 and also z-VRPR-FMK did not only inhibit MALT1
same,in vitro protease activity measurements (cleavage of fluorescent substrates),z-VRPR-FMK,probe 5 and also z-VRPR-FMK did not only inhibit MALT1
"FLAG-MALT1 wt (MALT1 Isoform B, overexpressed in Jurkat T cells) (protein) SLLGDPLQALPPSAAPTGPLLAPPAGATLNRLREPLLRRLSELLDQAPEGRGWRRLAELAGSRGRLRLSCLDLEQCSLKVLEPEGSPSLCLLKLMGEKGCTVTELSDFLQAMEHTEVLQLLSPPGIKITVNPESKAVLAGQFVKLCCRATGHPFVQYQWFKMNKEIPNGNTSELIFNAVHVKDAGFYVCRVNNNFTFEFSQWSQLDVCDIPESFQRSVDGVSESKLQICVEPTSQKLMPGSTLVLQCVAVGSPIPHYQWFKNELPLTHETKKLYMVPYVDLEHQGTYWCHVYNDRDSQDSKKVEIIIDELNNLGHPDNKEQTTDQPLAKDKVALLIGNMNYREHPKLKAPLVDVYELTNLLRQLDFKVVSLLDLTEYEMRNAVDEFLLLLDKGVYGLLYYAGHGYENFGNSFMVPVDAPNPYRSENCLCVQNILKLMQEKETGLNVFLLDMCRKRNDYDDTIPILDALKVTANIVFGYATCQGAEAFEIQHSGLANGIFMKFLKDRLLEDKKITVLLDEVAEDMGKCHLTKGKQALEIRSSLSEKRALTDPIQGTEYSAESLVRNLQWAKAHELPESMCLKFDCGVQIQLGFAAEFSNVMIIYTSIVYKPPEIIMCDAYVTDFPLDLDIDPKDANKGTPEETGSYLVSKDLPKHCLYTRLSSLQKLKEHLVFTVCLSYQYSGLEDTVEDKQEVNVGKPLIAKLDMHRGLGRKTCFQTCLMSNGPYQSSAATSGGAGHYHSLQDPFHGVYHSHPGNPSNVTPADSCHCSRTPDAFISSFAHHASCHFSRSNVPVETTDEIPFSFSDRLRISEK","MALT1 cleavage of A20, analyzed by western blot","FLAG-A20, P21580",only wt MALT1 is capable of cleaving its substrates
FLAG-MALT1 active site mutant C464A (C453A in Isoform B) (protein) SLLGDPLQALPPSAAPTGPLLAPPAGATLNRLREPLLRRLSELLDQAPEGRGWRRLAELAGSRGRLRLSCLDLEQCSLKVLEPEGSPSLCLLKLMGEKGCTVTELSDFLQAMEHTEVLQLLSPPGIKITVNPESKAVLAGQFVKLCCRATGHPFVQYQWFKMNKEIPNGNTSELIFNAVHVKDAGFYVCRVNNNFTFEFSQWSQLDVCDIPESFQRSVDGVSESKLQICVEPTSQKLMPGSTLVLQCVAVGSPIPHYQWFKNELPLTHETKKLYMVPYVDLEHQGTYWCHVYNDRDSQDSKKVEIIIDELNNLGHPDNKEQTTDQPLAKDKVALLIGNMNYREHPKLKAPLVDVYELTNLLRQLDFKVVSLLDLTEYEMRNAVDEFLLLLDKGVYGLLYYAGHGYENFGNSFMVPVDAPNPYRSENCLCVQNILKLMQEKETGLNVFLLDMARKRNDYDDTIPILDALKVTANIVFGYATCQGAEAFEIQHSGLANGIFMKFLKDRLLEDKKITVLLDEVAEDMGKCHLTKGKQALEIRSSLSEKRALTDPIQGTEYSAESLVRNLQWAKAHELPESMCLKFDCGVQIQLGFAAEFSNVMIIYTSIVYKPPEIIMCDAYVTDFPLDLDIDPKDANKGTPEETGSYLVSKDLPKHCLYTRLSSLQKLKEHLVFTVCLSYQYSGLEDTVEDKQEVNVGKPLIAKLDMHRGLGRKTCFQTCLMSNGPYQSSAATSGGAGHYHSLQDPFHGVYHSHPGNPSNVTPADSCHCSRTPDAFISSFAHHASCHFSRSNVPVETTDEIPFSFSDRLRISEK,"MALT1 cleavage of A20, analyzed by western blot","FLAG-A20, P21580",only wt MALT1 is capable of cleaving its substrates (the mutant does not cleave)
